The term stoichiometry N denotes a count of units in the complex or per binding partner.

The target of assay [1] is GNNV-P R276A (Dragon grouper nervous necrosis virus). In words: AUC; sedimentation velocity, pH 5.0, no divalent ions; 0.25–0.4 mg/mL, 60,000 rpm, 20 °C, absorbance at 280 nm, c(s) model (SEDFIT); monomer to trimer.
In assay [2] the target is GNNV-P: Dragon grouper NNV capsid protein P-domain (aa 221–338) plus the flexible linker (aa 214–220), wild type (Dragon grouper nervous necrosis virus). The assay is described as above.

Turning to GNNV-P R276A (domain or fragment), the stoichiometry N in assay [1] was 3.
Regarding “GNNV-P: Dragon grouper NNV capsid protein P-domain (aa 221–338) plus the flexible linker (aa 214–220), wild type (domain or fragment)”, in assay [2], the stoichiometry N is 3.
